US20120282619

Assays:
p190RhoGAP, Q9NRY4 = target: T1, p190RhoGAP, Q9NRY4
T1 chain: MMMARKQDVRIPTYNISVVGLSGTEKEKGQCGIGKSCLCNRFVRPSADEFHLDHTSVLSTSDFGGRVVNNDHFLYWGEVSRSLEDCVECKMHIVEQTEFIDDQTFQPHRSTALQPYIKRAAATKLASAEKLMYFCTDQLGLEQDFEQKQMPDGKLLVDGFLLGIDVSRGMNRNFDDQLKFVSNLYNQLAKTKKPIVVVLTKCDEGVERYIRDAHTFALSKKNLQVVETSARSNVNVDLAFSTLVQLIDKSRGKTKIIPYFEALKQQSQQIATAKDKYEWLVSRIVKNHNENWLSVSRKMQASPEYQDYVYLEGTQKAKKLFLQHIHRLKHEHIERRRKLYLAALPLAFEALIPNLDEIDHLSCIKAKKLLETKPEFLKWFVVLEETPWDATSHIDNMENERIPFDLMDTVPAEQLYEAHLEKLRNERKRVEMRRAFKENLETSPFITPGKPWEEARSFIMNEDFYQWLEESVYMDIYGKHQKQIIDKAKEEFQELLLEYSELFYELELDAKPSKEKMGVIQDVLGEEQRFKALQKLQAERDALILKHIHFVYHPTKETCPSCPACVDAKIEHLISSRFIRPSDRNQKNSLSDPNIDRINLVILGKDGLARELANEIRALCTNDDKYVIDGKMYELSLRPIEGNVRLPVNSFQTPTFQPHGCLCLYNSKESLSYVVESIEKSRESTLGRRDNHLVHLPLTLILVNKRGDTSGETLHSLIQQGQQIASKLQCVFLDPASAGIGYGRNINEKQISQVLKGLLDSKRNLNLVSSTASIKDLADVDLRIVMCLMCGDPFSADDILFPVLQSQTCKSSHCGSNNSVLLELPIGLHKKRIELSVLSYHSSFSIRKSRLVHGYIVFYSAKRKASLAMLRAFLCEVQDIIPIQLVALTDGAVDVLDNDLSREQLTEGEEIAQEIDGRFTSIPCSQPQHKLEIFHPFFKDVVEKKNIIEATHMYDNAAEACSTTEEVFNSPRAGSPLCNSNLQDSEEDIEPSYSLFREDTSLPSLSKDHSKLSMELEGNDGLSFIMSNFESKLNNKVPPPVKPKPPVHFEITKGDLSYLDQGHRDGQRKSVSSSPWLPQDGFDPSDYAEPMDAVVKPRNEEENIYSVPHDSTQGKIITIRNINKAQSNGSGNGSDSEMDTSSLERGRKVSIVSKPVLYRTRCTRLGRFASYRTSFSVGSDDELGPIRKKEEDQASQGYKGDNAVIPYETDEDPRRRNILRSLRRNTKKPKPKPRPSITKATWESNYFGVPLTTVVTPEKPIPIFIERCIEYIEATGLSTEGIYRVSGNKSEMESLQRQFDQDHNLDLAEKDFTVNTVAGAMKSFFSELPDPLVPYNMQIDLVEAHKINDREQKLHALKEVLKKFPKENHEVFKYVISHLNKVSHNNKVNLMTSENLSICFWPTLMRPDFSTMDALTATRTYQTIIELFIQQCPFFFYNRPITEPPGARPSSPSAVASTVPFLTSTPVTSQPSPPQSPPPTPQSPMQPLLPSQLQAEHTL

[1] = target: T2, GTPase regulator associated with FAK (GRAF), Q9UNA1
T2 chain: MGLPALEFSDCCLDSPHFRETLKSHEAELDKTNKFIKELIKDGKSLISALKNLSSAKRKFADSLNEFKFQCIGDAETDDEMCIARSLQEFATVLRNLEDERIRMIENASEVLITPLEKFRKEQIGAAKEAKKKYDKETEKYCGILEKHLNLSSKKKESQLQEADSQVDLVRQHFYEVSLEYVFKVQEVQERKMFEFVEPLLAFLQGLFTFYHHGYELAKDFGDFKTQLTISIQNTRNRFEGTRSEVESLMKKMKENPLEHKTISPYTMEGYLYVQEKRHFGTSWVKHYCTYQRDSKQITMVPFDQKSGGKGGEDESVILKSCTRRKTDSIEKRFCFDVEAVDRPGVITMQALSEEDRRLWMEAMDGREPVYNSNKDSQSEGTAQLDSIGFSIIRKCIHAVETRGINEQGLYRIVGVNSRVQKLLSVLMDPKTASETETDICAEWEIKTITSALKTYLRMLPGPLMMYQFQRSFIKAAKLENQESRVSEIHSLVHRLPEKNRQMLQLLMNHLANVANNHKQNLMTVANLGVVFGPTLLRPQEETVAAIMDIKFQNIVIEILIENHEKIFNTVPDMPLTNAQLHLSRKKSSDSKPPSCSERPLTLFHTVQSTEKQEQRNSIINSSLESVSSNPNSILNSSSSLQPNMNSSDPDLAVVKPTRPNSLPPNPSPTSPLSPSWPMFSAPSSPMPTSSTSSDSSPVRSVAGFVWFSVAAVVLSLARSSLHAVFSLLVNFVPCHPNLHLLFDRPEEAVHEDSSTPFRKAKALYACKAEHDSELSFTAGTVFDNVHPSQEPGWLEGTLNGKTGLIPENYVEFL

B1: focal adhesion kinase (FAK) (protein)
chain: AAAYLDPNLNHTPNSSTKTHLGTGMERSPGAMERVLKVFHYFESNSEPTTWASIIRHGDATDVRGIIQKIVDSHKVKHVACYGFRLSHLRSEEVHWLHVDMGVSSVREKYELAHPPEEWKYELRIRYLPKGFLNQFTEDKPTLNFFYQQVKSDYMLEIADQVDQEIALKLGCLEIRRSYWEMRGNALEKKSNYEVLEKDVGLKRFFPKSLLDSVKAKTLRKLIQQTFRQFANLNREESILKFFEILSPVYRFDKECFKCALGSSWIISVELAIGPEEGISYLTDKGCNPTHLADFTQVQTIQYSNSEDKDRKGMLQLKIAGAPEPLTVTAPSLTIAENMADLIDGYCRLVNGTSQSFIIRPQKEGERALPSIPKLANSEKQGMRTHAVSVSETDDYAEIIDEEDTYTMPSTRDYEIQRERIELGRCIGEGQFGDVHQGIYMSPENPALAVAIKTCKNCTSDSVREKFLQEALTMRQFDHPHIVKLIGVITENPVWIIMELCTLGELRSFLQVRKYSLDLASLILYAYQLSTALAYLESKRFVHRDIAARNVLVSSNDCVKLGDFGLSRYMEDSTYYKASKGKLPIKWMAPESINFRRFTSASDVWMFGVCMWEILMHGVKPFQGVKNNDVIGRIENGERLPMPPNCPPTLYSLMTKCWAYDPSRRPRFTELKAQLSTILEEEKAQQEERMRMESRRQATVSWDSGGSDEAPPKPSRPGYPSPRSSEGFYPSPQHMVQTNHYQVSGYPGSHGITAMAGSIYPGQASLLDQTDSWNHRPQEIAMWQPNVEDSTVLDLRGIGQVLPTHLMEERLIRQQQEMEEDQRWLEKEERFLKPDVRLSRGSIDREDGSLQGPIGNQHIYQPVGKPDPAAPPKKPPRPGAPGHLGSLASLSSPADSYNEGVKLQPQEISPPPTANLDRSNDKVYENVTGLVKAVIEMSSKIQPAPPEEYVPMVKEVGLALRTLLATVDETIPLLPASTHREIEMAQKLLNSDLGELINKMKLAQQYVMTSLQQEYKKQMLTAAHALAVDAKNLLDVIDQARLKMLGQTRPH
p190RhoGAP, Q9NRY4
  RhoA activity: TM4SF5 expressed in SNU449 cells inhibited RhoA activity, leading to the elongation of cells
[1]
  RhoA activity: TM4SF5 expressed in SNU449 cells inhibited RhoA activity, leading to the elongation of cells
